Source: publication PMC8136826

Biological target: Cas12a ΔBH (Francisella novicida, UniProt A0Q7Q2 1-1300, del953-969)
Assay: EMSA

B1: crRNA + dsDNA target (58 nt, TS/NTS) (mixed)
RNA: UAAUUUCUACUGUUGUAGAUGUGAUAAGUGGAAUGCCAUGUGGG
DNA 1: ACTCAATTTTGACAGCCCACATGGCATTCCACTTATCACTAAAGGCATCCTTCCACGT
DNA 2: ACGTGGAAGGATGCCTTTAGTGATAAGTGGAATGCCATGTGGGCTGTCAAAATTGAGT
  binding result: binds
